Test results from US20240228562A1, “NOVEL LIPOCALIN MUTEINS SPECIFIC FOR CONNECTIVE TISSUE GROWTH FACTOR (CTGF)” (PIERIS PHARMACEUTICALS GMBH, priority 2021, published 2024).
Substitutions are numbered along the chain they refer to.

T1: Murine CTGF (Mus musculus, UniProt P29268)
T1 construct: purchased Abbexa
T1 sequence (P29268 26-348): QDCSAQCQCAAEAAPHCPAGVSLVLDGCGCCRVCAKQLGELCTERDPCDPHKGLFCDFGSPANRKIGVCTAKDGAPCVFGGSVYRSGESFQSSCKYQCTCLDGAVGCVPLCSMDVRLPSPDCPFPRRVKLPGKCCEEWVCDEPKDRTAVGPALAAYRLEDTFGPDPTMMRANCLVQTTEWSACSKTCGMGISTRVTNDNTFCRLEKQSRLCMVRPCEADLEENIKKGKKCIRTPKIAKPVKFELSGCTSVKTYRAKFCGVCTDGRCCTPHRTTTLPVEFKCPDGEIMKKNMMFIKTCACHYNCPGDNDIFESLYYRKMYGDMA

T2: Rat CTGF (Rattus norvegicus, UniProt Q9R1E9)
T2 construct: purchased R&D Systems
T2 sequence (Q9R1E9 25-347): T1 sequence (P29268 26-348) with H16R, A148V

B1: SEQ ID NO: 22: optimized CTGF-binding hNGAL lipocalin mutein (protein)
chain: QDSTSDLIPAPPLSKVPLQQNFQDNQFQGKWYVVGIAGNAILRVDKQPAKMFATIYELKEDKSYDVTSVRFEAKSCVYTIKTFVPGSQPGEFTAGNIKSAPGQTSTLVRVVSTNYNQHAMVFFKHVSQNREIFVITLYGRTKELTSELKENFIRFSKSLGLPENHIVFPVPIDQCIDG
modifications: lipocalin mutein
B2: SEQ ID NO: 26: optimized CTGF-binding hNGAL lipocalin mutein (protein)
chain: QDSTSDLIPAPPLSKVPLQQNFQDNQFQGKWYVVGLAGNYRLREDKDPSKMGATIYELKEDKSYDVTQVQFDDKKCLYVIETFVPGSQPGEFTLGNIKVYPTLESQLVRVVSTNYNQHAMVFFKKVYQNREVFWITLYGRTKELTSELKENFIRFSKSLGLPENHIVFPVPIDQCIDG
modifications: lipocalin mutein
B3: SEQ ID NO: 27: optimized CTGF-binding hNGAL lipocalin mutein (protein)
chain: B2 chain with N96A, V99S, T102G, E104T, F123L, Q128G, N129S, R130E, V132Y, W134H
modifications: lipocalin mutein
B4: SEQ ID NO: 32: optimized CTGF-binding hNGAL lipocalin mutein (protein)
chain: QDSTSDLIPAPPLSKVPLQQNFQDNQFQGKWYVVGWAGNVKLREDKQPFKMSATIYELKEDKSYDVTEVVFEQKKCHYIIKTFVPGSQPGEFTLSPISSSPGLVSHLVRVVSTNYNQHAMVFFKKVHQNREFFWITLYGRTKELTSELKENFIRFSKSLGLPENHIVFPVPIDQCIDG
modifications: lipocalin mutein
B5: SEQ ID NO: 33: optimized CTGF-binding hNGAL lipocalin mutein (protein)
chain: QDSTSDLIPAPPLSKVPLQQNFQDNQFQGKWYVVGWAGNAKLREDKQPFKMSATIYELKEDKSYDVTEVVFEQKKCHYIIKTFVPGSQPGEFTEGNYKRRPRLWSDLVRVVSTNYNQHAMVFFKKVHQNREFFWITLYGRTKELTSELKENFIRFSKSLGLPENHIVFPVPIDQCIDG
modifications: lipocalin mutein
B6: SEQ ID NO: 10: optimized CTGF-binding hNGAL lipocalin mutein (protein)
chain: QDSTSDLIPAPPLSKVPLQQNFQDNQFQGKWYVVGLAGNAILREDKQPAKMFATIYELKEDKSYDVTSVRFEAKSCSYTIKTFVPGSQPGEFTAGNIKSAPGQTSTLVRVVSTNYNQHAMVFWKSVAGTRESFNIALYGRTKELTSELKENFIRFSKSLGLPENHIVFPVPIDQCIDG
modifications: lipocalin mutein
B7: SEQ ID NO: 16: optimized CTGF-binding hNGAL lipocalin mutein (protein)
chain: B1 chain with I36L, V44T, I132F
modifications: lipocalin mutein
B8: SEQ ID NO: 19: optimized CTGF-binding hNGAL lipocalin mutein (protein)
chain: B1 chain with I36L, V44E, V77S, F123H, H125A, I132S
modifications: lipocalin mutein
B9: SEQ ID NO: 21: optimized CTGF-binding hNGAL lipocalin mutein (protein)
chain: B6 chain with W123F, S125A, A127R, T129A
modifications: lipocalin mutein
B10: SEQ ID NO: 28: optimized CTGF-binding hNGAL lipocalin mutein (protein)
chain: QDSTSDLIPAPPLSKVPLQQNFQDNQFQGKWYVVGLAGNYRLREDKDPSKMGATIYELKEDKSYDVTQVQFDDKKCLYVIETFVPGSQPGEFTLGAIKSYPGLTSQLVRVVSTNYNQHAMVFVKKVWPNLEYFQIVLYGRTKELTSELKENFIRFSKSLGLPENHIVFPVPIDQCIDG
modifications: lipocalin mutein

Tests used:
Murine CTGF = molecular target: T1, Murine CTGF; experiment: SPR binding kinetics and affinity, murine CTGF; set-up: key to Murine CTGF kon / Murine CTGF koff / Murine CTGF KD: B binding without determination of kinetics constants; conditions: 25° C., 1:1 binding model
Procedure: (§1) Surface plasmon resonance (SPR) was used to measure binding kinetics and affinity of the representative lipocalin muteins disclosed herein.
(§2) The binding of exemplary lipocalin muteins to human (Creative Biomart), cynomolgus, rat (R&D Systems) and mouse CTGF (Abbexa) was determined by SPR using a Biacore instrument (Cytiva, formerly GE Healthcare). Some targets were fused to a human IgG1 Fc tag, and captured via the anti-human IgG antibody kit, others were directly immobilized.
(§3) For some measurements, human CTGF with a human IgG1 Fc Tag or rat or murine CTGF without a tag were directly immobilized to a CM5 Chip. The carboxyl groups on the chip were activated using 1-ethyl-3-(3-dimethylaminopropyl)-carbodiimide (EDC) and N-hydroxysuccinimide (NHS). Subsequently, the targets at a concentration of 3-5 μg/mL in 10 mM sodium acetate (pH) 4.5 were applied at a flow rate of 10 μL/min until an immobilization level of 300-1100 resonance units was achieved. Residual non-reacted NHS-esters were blocked by passing a solution of 1 M ethanolamine across the surface. The reference channel was activated/deactivated. For the capture setting, targets with an IgG Fc Tag at 0.25-2.5 μg/mL in HBS-EP+ buffer were captured by the anti-human IgG-Fc antibody at the chip surface for 180 s at a flow rate of 10 μL/min.
(§4) The binding assay was carried out with a contact time of 180 s, a dissociation time of 900-3600 s and a flow rate of 30 μL/min. All measurements were performed at 25° C. […] For the directly immobilized targets, the same regeneration conditions were used. Prior to the protein measurements, three startup cycles were performed for conditioning purposes. Data were evaluated with Biacore Evaluation software. Double referencing was used and the 1:1 binding model was used to fit the raw data.
(§5) The values determined for kon, koff and the resulting equilibrium dissociation constant (KD) for exemplary lipocalin muteins are summarized in Table 4.

human CTGF [1] = molecular target: T3, human CTGF (Homo sapiens, UniProt P29279); experiment: SPR binding kinetics and affinity, human CTGF; conditions: 25° C., 1:1 binding model
T3 construct: purchased Creative Biomart
T3 sequence (P29279 with tags, fused parts or gaps H83D): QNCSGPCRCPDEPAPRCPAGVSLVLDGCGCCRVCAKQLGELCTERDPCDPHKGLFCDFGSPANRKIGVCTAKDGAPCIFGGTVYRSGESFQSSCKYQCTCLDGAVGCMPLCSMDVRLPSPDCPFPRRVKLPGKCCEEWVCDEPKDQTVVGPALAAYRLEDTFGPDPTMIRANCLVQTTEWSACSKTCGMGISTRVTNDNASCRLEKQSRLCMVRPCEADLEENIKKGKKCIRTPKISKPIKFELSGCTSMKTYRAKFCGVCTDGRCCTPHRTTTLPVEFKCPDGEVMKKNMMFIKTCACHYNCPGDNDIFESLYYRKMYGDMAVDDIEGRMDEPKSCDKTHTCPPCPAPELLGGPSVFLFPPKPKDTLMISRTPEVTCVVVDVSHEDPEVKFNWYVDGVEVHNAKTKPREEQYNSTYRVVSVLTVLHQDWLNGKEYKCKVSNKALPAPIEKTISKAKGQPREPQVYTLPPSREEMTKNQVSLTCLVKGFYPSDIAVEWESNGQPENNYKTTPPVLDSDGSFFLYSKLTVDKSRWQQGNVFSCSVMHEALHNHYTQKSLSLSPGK
Procedure: as §1, §2, §3, §4

human CTGF [2] = molecular target: T4, human CTGF (Homo sapiens, UniProt P29279, H83D); experiment: SPR binding kinetics and affinity, human CTGF; conditions: 25° C., 1:1 binding model
T4 construct: purchased Creative Biomart
T4 sequence (P29279 with tags, fused parts or gaps H83D): as above
Procedure: as §1, §2, §3, §4

Rat CTGF = molecular target: T2, Rat CTGF; experiment: SPR binding kinetics and affinity, rat CTGF; conditions: 25° C., 1:1 binding model
Procedure: as §1, §2, §3, §4, §5

[3] = Thermal stability assessment by nanoDSC; type: physicochemical; conditions: 1 mg/mL in PBS, scan 25-100° C. at 1° C./min; for TM: major transition
Procedure: To determine the melting temperatures (Tms) of the lipocalin muteins, which is a general indicator for folding stability, the CTGF specific muteins, at a protein concentration of 1 mg/mL in PBS (Gibco), were scanned (25-100° C.) at 1° C./min using a capillary nanoDSC instrument (CSC 6300, TA Instruments). […] Several unfolding events can contribute to the observed thermogram. In cases with multiple transitions, the one with the major unfolding energy best represents the overall protein fold and is reported. Muteins were produced as described in Example 3. SEQ ID NOs: 3, 7, 9, 25, and 29 were expressed using E. coli, the other muteins were expressed using CHO cells.
The resulting maximum melting temperatures as well as the onset temperature of melting for exemplary lipocalin muteins and fusion proteins are listed in Table 3 below.

Row | Molecule | Murine CTGF KD (Murine CTGF) | Murine CTGF koff (Murine CTGF) | Murine CTGF kon (Murine CTGF) | human CTGF koff (human CTGF [1]) | human CTGF kon (human CTGF [2]) | Rat CTGF koff (Rat CTGF) | Rat CTGF kon (Rat CTGF) | ONSET MELTING [3] | TM [3]
1 | B1 | B | B | B | 8.05e-06 s⁻¹ | 142000 M⁻¹ s⁻¹ | 4.01e-05 s⁻¹ | 181000 M⁻¹ s⁻¹ | 59 °C | 73 °C
2 | B2 | – | 0.000208 s⁻¹ | 35300 M⁻¹ s⁻¹ | 3.06e-05 s⁻¹ | 23200 M⁻¹ s⁻¹ | – | – | 62 °C | 71 °C
3 | B3 | – | 0.000172 s⁻¹ | 41400 M⁻¹ s⁻¹ | 2.45e-05 s⁻¹ | 30500 M⁻¹ s⁻¹ | – | – | 52 °C | 64 °C
4 | B4 | – | 0.000264 s⁻¹ | 133000 M⁻¹ s⁻¹ | 6.39e-05 s⁻¹ | 109000 M⁻¹ s⁻¹ | – | – | 62 °C | 79 °C
5 | B5 | – | 5.29e-05 s⁻¹ | 176000 M⁻¹ s⁻¹ | 1.71e-05 s⁻¹ | 172000 M⁻¹ s⁻¹ | 6.3e-05 s⁻¹ | 279000 M⁻¹ s⁻¹ | 56 °C | 72 °C
6 | B6 | B | B | B | 2.23e-06 s⁻¹ | 67700 M⁻¹ s⁻¹ | 4.08e-05 s⁻¹ | 88800 M⁻¹ s⁻¹ | 50 °C | 66 °C
7 | B7 | – | 6.34e-05 s⁻¹ | 161000 M⁻¹ s⁻¹ | 7.02e-05 s⁻¹ | 92300 M⁻¹ s⁻¹ | – | – | 59 °C | 73 °C
8 | B8 | – | 2.54e-05 s⁻¹ | 93200 M⁻¹ s⁻¹ | 5.2e-05 s⁻¹ | 56600 M⁻¹ s⁻¹ | – | – | 49 °C | 65 °C
9 | B9 | – | 3.94e-05 s⁻¹ | 228000 M⁻¹ s⁻¹ | 6.63e-05 s⁻¹ | 127000 M⁻¹ s⁻¹ | – | – | 55 °C | 65 °C
10 | B10 | – | 8.23e-05 s⁻¹ | 60700 M⁻¹ s⁻¹ | 2.61e-05 s⁻¹ | 50400 M⁻¹ s⁻¹ | – | – | 55 °C | 65 °C
